Test results from article PMC7513463 (Nature, 2020).
Where two headings read alike, the source gives them in different places.

B2: PA0628 hub protein of pyocin R2 (natural protein, Pseudomonas aeruginosa PAO1, UniProt G3XCU8 1-329, looked up)
chain: MQPSFRIVADGTDVTQRLNDRLLKLTLLDKPGMESDSLTLRIDDRDGQVALPRRGAVLEVHLGYAGEPLMRMGRFTVDTLQWAGPPDCLTVTAKAGDMRGSGKTIRSGGWEGTTLAQVCRDVGARNGWRVECPLQVAIARVDQVNESDYHFVTRLARQYDCTAKLAEGMLMVLPRQSGQSATGRRIEPLVLGRADVGSFDVTFDDRSLMRTVKTRYQLPGSGEVKSVELKNPKAPATAMGEHVDRHLYTSRGEAEQAAKARLASFSRSSASVRLELPGRGDLFAERSLLLQGFKAGIDGEFLIDSVEHTYSSSGWTTVVQCNGGRGGKG
B5: PA0618 (Tri1) triplex protein of pyocin R2 (natural protein, Pseudomonas aeruginosa PAO1, UniProt G3XCX5 1-295, looked up)
chain: MIIDLSQLPEPEVIENLDFETIYQELLGDFREAMAGEWTAEVESDPVLKLLQLAAYRELLLRARINDAARAVMLAYASGADLDQIGAGFNVQRLLIRPAQPEAVPPVEAQYESDKSLRNRIQLAFEQLSVAGPRNAYIAHALGADGRVADASATSPAPCEVLISVLGVEGNGQAPEAVLQAVRLALNAEDVRPVADRVTVRSAGIVPYQVKAQLYLFPGPEAELIRAAAEASLRDYISAQRRLGRDIRRSALFATLHVEGVQRVELQEPAADVVLDETQAAYCTGYAITLGGVDE
B9: PA0622 sheath protein of pyocin R2 (natural protein, Pseudomonas aeruginosa PAO1, UniProt G3XD39 1-386, looked up)
chain: MSFFHGVTVTNVDIGARTIALPASSVIGLCDVFTPGAQASAKPNVPVLLTSKKDAAAAFGIGSSIYLACEAIYNRAQAVIVAVGVETAETPEAQASAVIGGISAAGERTGLQALLDGKSRFNAQPRLLVAPGHSAQQAVATAMDGLAEKLRAIAILDGPNSTDEAAVAYAKNFGSKRLFMVDPGVQVWDSATNAARNAPASAYAAGLFAWTDAEYGFWSSPSNKEIKGVTGTSRPVEFLDGDETCRANLLNNANIATIIRDDGYRLWGNRTLSSDSKWAFVTRVRTMDLVMDAILAGHKWAVDRGITKTYVKDVTEGLRAFMRDLKNQGAVINFEVYADPDLNSASQLAQGKVYWNIRFTDVPPAENPNFRVEVTDQWLTEVLDVA
B10: PA0619 (Tri2) triplex protein of pyocin R2 (natural protein, Pseudomonas aeruginosa PAO1, UniProt G3XD92 1-177, looked up)
chain: MSSRLLPPNRSSLERSLGDVLPAELPVPLRELHDPARCEAALLPYLAWTRSVDRWDPDWSDEAKRNAVATSFVLHQRKGTLTALRQVVEPIGALSEVTEWWQRSPTGVPGTFEITVDVSDRGIDEGTVLELERLLDDVRPVSRHLTRLDLRITPVIRSRHGLAVTDGDTLEIFPWKQ

How the values were obtained:
[1] = target: B9; test: cryo-EM structure
[2] = target: the molecule itself; test: cryo-EM structure
[3] = target: B9; test: cryo-EM structure; remark: listed apart in the source
[4] = target: B2; test: cryo-EM structure
[5] = target: B10; test: cryo-EM structure
[6] = target: the molecule itself; test: crystal structure
[7] = target: the molecule itself; test: cryo-EM structure; remark: listed apart in the source
[8] = target: B5; test: cryo-EM structure

B1: PA0615 collar protein of pyocin R2 (natural protein, Pseudomonas aeruginosa PAO1, UniProt G3XD82 1-171, looked up)
chain: MPEQAVTLEALYAAIEQVLRERLPEAQLIGFWPGVPENTPAVSLEIAELLPERDPGTGESALLCRLQARIMVPPGADRQAVSIACGIVRTLREQTWNLSLQPARFVRSAVDGSREELKSLRVWLVEWTQSLRLGDPEWAWEDQPPGSLMLGFDPQTGPGHEPDYFAPEALA
binding result [1]: binds
stoichiometry N [2]: 6

B2
stoichiometry N [2]: 3

B3: PA0617 sheath initiator protein of pyocin R2 (natural protein, Pseudomonas aeruginosa PAO1, UniProt G3XD42 1-108, looked up)
chain: MIGMDRRSGLPLSGLAHLKQSVEDILTTPLGSRRMRPEYGSKLRRMVDMPVSEGWKSAVQAEVARSLGRWEPRIGLSAVRVVAVVDGRVDLLLSGVFEGENINMEVSA
binding result [3]: binds

B4: PA0626 ripcord protein of pyocin R2 (natural protein, Pseudomonas aeruginosa PAO1, UniProt G3XD65 1-290, looked up)
chain: MAYLEQLQAGLRYLGRAGESGRKSLDKVVAPVNGAISEIRGAAAELENLPGVSPEMAARLQRAMRGIGQAQGKVNRVVSTYDRASRALLGIDERLDALKVQVNSAAQAVGKVAGDISPTLAGVLPSWLLAPSATPPSEAAASLPHLLVLQPLTANAQPFYFNLNTAAFDALQRNSAYNWSGQVRLGRRPALQSVGMGEESILLKGAVFPLRRQVGNQEKVVGLEQLEALRRLAERREPLILSSGYGEVQMGLWCLVRISENQSALLGNGAPRKQTFDLEFKRYGDDLPNR
binding result [4]: binds
stoichiometry N [2]: 6

B5
stoichiometry N [5]: 2 PA0618 per PA0619
stoichiometry N [2]: 2

B6: PA0616 central spike protein of pyocin R2 (in the native particle) (natural protein)
chain: MSYVSAEHDRMLAAMILPCVVVAVDLAAARVRVRSGDWTSGWLRWHSLAAGKVRHWRAPSIGEQGVLLSPSGGVSMGTFIPGLYGDAGTAPDNSASSETWRFDDGASLSYDWAAHRYRVELPSGTVEVRVGASEVRVSDGAVSLKAPKISLEGPVEIAGTLTVSGDILGGGSIIDTAGNSNHHTH
stoichiometry N [2]: 3

B7: PA0616 central spike protein, full length, recombinant (natural protein)
chain: MSYVSAEHDRMLAAMILPCVVVAVDLAAARVRVRSGDWTSGWLRWHSLAAGKVRHWRAPSIGEQGVLLSPSGGVSMGTFIPGLYGDAGTAPDNSASSETWRFDDGASLSYDWAAHRYRVELPSGTVEVRVGASEVRVSDGAVSLKAPKISLEGPVEIAGTLTVSGDILGGGSIIDTAGNSNHHTH
stoichiometry N [6]: 3

B8: PA0623 tube protein of pyocin R2 (natural protein, Pseudomonas aeruginosa PAO1, UniProt Q9I5S9 1-167, looked up)
chain: MIPQTLTNTNLFIDGVSFAGDVPSLTLPKLAVKTEQYRAGGMDAPVSIDMGLEAMEAKFSTNGARREALNFFGLADQSAFNGVFRGSFKGQKGASVPVVATLRGLLKEVDPGDWKAGEKAEFKYAVAVSYYKLEVDGREVYEIDPVNGVRAINGVDQLAGMRNDLGL
stoichiometry N [2]: 6

B9
binding result [7]: binds

B10
binding result [8]: binds
